According to paper PMC11087511:

Tests used:
human alpha-thrombin [1] = molecular target: T1, human alpha-thrombin (human, UniProt P00734;P00734 328-363;364-622); assay: BLI; kon 3.9e7 M-1s-1, koff 2.1e-3 s-1; DAB moiety binds active site; not given in the material (Methods for BLI and fluorogenic assay are headings only)
human alpha-thrombin [2] = molecular target: T1, human alpha-thrombin; assay: inhibition of fluorogenic peptide cleavage; DAB moiety contributes; max inhibition >99%; not given in the material (Methods for BLI and fluorogenic assay are headings only)
thrombin S195A = thrombin S195A (UniProt P00734;P00734 315-363;364-622, S568A); assay: X-ray crystallography; 2.2 A; Na+; DAB in S1 pocket, aptamer at exosite 2; not given in the material (Methods for BLI and fluorogenic assay are headings only)
human alpha-thrombin [3] = molecular target: T1, human alpha-thrombin; assay: BLI; not given in the material (Methods for BLI and fluorogenic assay are headings only)
human alpha-thrombin [4] = molecular target: T1, human alpha-thrombin; assay: inhibition of fluorogenic peptide cleavage; maximum inhibition 55%; not given in the material (Methods for BLI and fluorogenic assay are headings only)
human alpha-thrombin [5] = molecular target: T1, human alpha-thrombin; assay: inhibition of fluorogenic peptide cleavage; maximum inhibition 30%; not given in the material (Methods for BLI and fluorogenic assay are headings only)

AAAAAAAAGTCCGTGGTAGGGCAGGTTGGGGTGACT (structured_DNA, 5' C6-dabigatran) [Bio-HD22-7A-DAB] showed a Kd (human alpha-thrombin [1]) of 0.054 nM.

In the case of AAAAAAAAGTCCGTGGTAGGGCAGGTTGGGGTGACT (structured_DNA, 5' C6-dabigatran) [HD22-7A-DAB], the IC50 (human alpha-thrombin [2]) is reported as 0.1 nM and the binding result (thrombin S195A) is reported as “binds”.

AAAAAAAAGTCCGTAATAAAGCAGGTTAAAATGACT (ssDNA, 5' C6-amine) [Bio-HD23-7A-NH2]: no binding (human alpha-thrombin [3]).

In the case of AGTCCGTGGTAGGGCAGGTTGGGGTGACT (structured_DNA, 5' C6-dabigatran) [HD22-0A-DAB], the IC50 (human alpha-thrombin [4]) is reported as 0.55 nM.

AGTCCGTGGTAGGGCAGGTTGGGGTGACT (structured_DNA) [HD22] showed an IC50 (human alpha-thrombin [5]) of 0.95 nM.
